Measurements taken from CN112225809A.

Target: hPD1/Fc of human IgG1 (fluorescently labelled) (human) (UniProt Q15116)
Experiment: flow cytometry blocking assay: 100 ng hPD-1/hFc-FITC and antibody on SPC-A1-PDL1 cells

UniProt Q15116, sequence (Q15116 25-167 limits assumed): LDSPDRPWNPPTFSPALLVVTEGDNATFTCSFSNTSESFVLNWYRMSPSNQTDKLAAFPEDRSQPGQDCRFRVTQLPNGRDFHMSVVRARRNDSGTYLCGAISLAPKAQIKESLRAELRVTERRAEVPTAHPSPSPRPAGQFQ

amount of antibody that blocks the binding of PD-1 to PD-L1: 1.6 µg
B1: hUM1-30 (antibody, human IgG4 S228P, kappa, V domains shown)
VH: EVQLVESGGGLVQPGGSLRLSCAASGFTFSTYGMSWVRQAPGKGLEWVSTISGGGRYTYYPDSVKGRFTISRDNSKNTLYLQMNSLRAEDTAVYYCARQKGTTWFAHWGQGTLVTVSS
VL: DIQMTQSPSSLSASVGDRVTITCRASESVDDNGISFMNWFQQKPGKAPKLLIYAASNQGSGVPSRFSGSGSGTDFTLTISSLQPEDFATYYCQQSKEVPWTFGQGTKVEIKR
